Source: paper PMC4702668

How the values were obtained:
[1] = target: B41 SOSIP.664 trimer (HIV-1); assay: cross-linking
[2] = target: BG505 SOSIP.664 trimer, unmodified (HIV-1); assay: cross-linking

| Substance | stoichiometry N [1] | stoichiometry N [2] |
| --- | --- | --- |
| B41 SOSIP.664 trimer (complex) | 3 | – |
| BG505 SOSIP.664 trimer, unmodified (complex) | – | 3 |
